Measured values reported in publication PMC523230, “Dictyostelium Myosin Bipolar Thick Filament Formation: Importance of Charge and Specific Domains of the Myosin Rod” (PLoS Biology, 2004).
Substitutions are numbered along the chain they refer to.

B1: AD-Cterm (3xAsp) myosin-II tail fragment (domain or fragment, Dictyostelium discoideum)
chain: MNVEFIRKKDAEIDDLRARLDRETESRIKSDEDKKNTRKQFADLEAKVEEAQREVVTIDRLKKKLESDIIDLSTQLDTETKSRIKIEKSKKKLEQTLAERRAAEEGSSKAADEEIRKQVWQEVDELRAQLDSERAALNASEKKIKSLVAEVDEVKEQLEDEILAKDKLVKAKRALEVELEEVRDQLEEEEDSRSELEDSKRRLTTEVEDIKKKYDAEVEQNTKLDEAKKKLTDDVDTLKKQLEDEKKKLNESERAKKRLESENEDFLAKLDAEVKNRSRAEKDRKKYEKDLKDDKYKLNDEAADKTQTEIGAAKLEDQIDELRSKLEQEQAKATQADKSKKTLEGEIDNLRAQIEDEGKIKMRLEKEKRALEGELEELRETVEEAEDSKSEAEQSKRLVELELEDARRNLQKEIDAKEIAEDAKSNLQREIVEAKGRLEEESIARTNSDRSRKRLEAEIDALTAQVDAEQKAKNQQIKENKKIETELKEYRKKFGESEKDKTKEFLVVEKLETDYKRAKKEAADEQQQRLTVENDLRKHLSEISLLKDAIDKLQRDHDKTKRELETETASKIEMQRKMADFFGGFKA
notes: N-terminal methionine added before the myosin residues; Dictyostelium myosin-II heavy chain, a.a; 1,531-2,116, aspartic acids in place of the three threonine phosphorylation sites; Phosphomimetic; also called headless AD-Cterm (3xAsp); 3xAsp tail fragment; source: E. coli BL21-CodonPlus (DE3)-RIL, purified (boiling, DEAE, Superdex 200, Mono Q)
B2: AD-Cterm (3xThr) myosin-II tail fragment (domain or fragment, Dictyostelium discoideum)
chain: B1 chain with D294T, D304T, D500T
notes: N-terminal methionine added before the myosin residues; Dictyostelium myosin-II heavy chain, a.a; 1,531-2,116 (assembly domain through C terminus); the assembly rows are about coiled coils joining into paracrystals; also called headless AD-Cterm (3xThr); wild-type tail fragment; source: E. coli BL21-CodonPlus (DE3)-RIL, purified (boiling, DEAE, Superdex 200, Mono Q)
B3: extended AD (2xAsp) (protein)
chain: MNVEFIRKKDAEIDDLRARLDRETESRIKSDEDKKNTRKQFADLEAKVEEAQREVVTIDRLKKKLESDIIDLSTQLDTETKSRIKIEKSKKKLEQTLAERRAAEEGSSKAADEEIRKQVWQEVDELRAQLDSERAALNASEKKIKSLVAEVDEVKEQLEDEILAKDKLVKAKRALEVELEEVRDQLEEEEDSRSELEDSKRRLTTEVEDIKKKYDAEVEQNTKLDEAKKKLTDDVDTLKKQLEDEKKKLNESERAKKRLESENEDFLAKLDAEVKNRSRAEKDRKKYEKDLKDDKYKLNDEAADKTQTEIG
B4: extended AD (2xThr) (domain or fragment, Dictyostelium discoideum)
chain: B3 chain with D294T, D304T
notes: N-terminal methionine added before the myosin residues; Dictyostelium myosin-II heavy chain, a.a; 1,531-1,840; also called headless extended AD (2xThr); source: E. coli BL21-CodonPlus (DE3)-RIL, purified (boiling, DEAE, Superdex 200, Mono Q)
B5: AD-Ala 2 (2xThr) (domain or fragment, Dictyostelium discoideum)
chain: MNVEFIRKKDAEIDDLRARLDRETESRIKSDEDKKNTRKQFADLEAKVEEAQREVVTIDRLKKKLESDIIDLSTQLDTETKSRIKIEKSKKKLEQTLAERRAAEEGSSKAADEEIRKQVWQEVDELRAQLDSERAALNASEKKIKSLVAEVDEVKEQLEDEILAKDKLVKAKRALEVELEEVRDQLEEEEDSRSELEDSKRRLTTEVEDIKKKYDAEVEQNTKLDEAKKKLTDDVDTLKKQLEDEKKKLNESERAKKRLESENEDFLAKLDAEVKNRSRAEKDRKKYEKDLKDTKYKLNDEAATKTQTEIGAAKLEDQIDELRSKLEQEQAKATQADKSKKTLEGEIDNLRAQIEDEGKIKMRLEKEKRALEGELEELRETVEEAEDSKSEAEQSKRLVELELEDARRNLQKEIDAKEIAEDAKSNLQREIVEAKGR
notes: N-terminal methionine added before the myosin residues; Dictyostelium myosin-II heavy chain, a.a; 1,531-1,966 (AD through Ala 2); also called headless AD-Ala2 (2xThr); source: E. coli BL21-CodonPlus (DE3)-RIL, purified (boiling, DEAE, Superdex 200, Mono Q)
B6: Ala1-Ala2 (2xThr) (domain or fragment, Dictyostelium discoideum)
chain: MLDEIKRQYADVVSSRDKSVEQLKTLQAKNEELRNTAEEAEGQLDRAERSKKKAEFDLEEAVKNLEEETAKKVKAEKAMKKAETDYRSTKSELDDAKNVSSEQYVQIKRLNEELSELRSVLEEADERCNSAIKAKKTAESALESLKDEIDAANNAKAKAERKSKELEVRVAELEESLEDKSGTVNVEFIRKKDAEIDDLRARLDRETESRIKSDEDKKNTRKQFADLEAKVEEAQREVVTIDRLKKKLESDIIDLSTQLDTETKSRIKIEKSKKKLEQTLAERRAAEEGSSKAADEEIRKQVWQEVDELRAQLDSERAALNASEKKIKSLVAEVDEVKEQLEDEILAKDKLVKAKRALEVELEEVRDQLEEEEDSRSELEDSKRRLTTEVEDIKKKYDAEVEQNTKLDEAKKKLTDDVDTLKKQLEDEKKKLNESERAKKRLESENEDFLAKLDAEVKNRSRAEKDRKKYEKDLKDTKYKLNDEAATKTQTEIGAAKLEDQIDELRSKLEQEQAKATQADKSKKTLEGEIDNLRAQIEDEGKIKMRLEKEKRALEGELEELRETVEEAEDSKSEAEQSKRLVELELEDARRNLQKEIDAKEIAEDAKSNLQREIVEAKGR
notes: N-terminal methionine added before the myosin residues; Dictyostelium myosin-II heavy chain, a.a; 1,348-1,966 (Ala 1 through Ala 2); also called headless Ala1-Ala2 (2xThr); source: E. coli BL21-CodonPlus (DE3)-RIL, purified (boiling, DEAE, Superdex 200, Mono Q)
B7: AD (1xThr) myosin-II assembly domain (domain or fragment, Dictyostelium discoideum)
chain: MNVEFIRKKDAEIDDLRARLDRETESRIKSDEDKKNTRKQFADLEAKVEEAQREVVTIDRLKKKLESDIIDLSTQLDTETKSRIKIEKSKKKLEQTLAERRAAEEGSSKAADEEIRKQVWQEVDELRAQLDSERAALNASEKKIKSLVAEVDEVKEQLEDEILAKDKLVKAKRALEVELEEVRDQLEEEEDSRSELEDSKRRLTTEVEDIKKKYDAEVEQNTKLDEAKKKLTDDVDTLKKQLEDEKKKLNESERAKKRLESENEDFLAKLDAEVKNRSRAEKDRKKYEKDLKDTK
notes: N-terminal methionine added before the myosin residues; Dictyostelium myosin-II heavy chain, assembly domain, a.a; 1,531-1,824; also called headless AD (1xThr); 34-kDa assembly domain; source: E. coli BL21-CodonPlus (DE3)-RIL, purified (boiling, DEAE, Superdex 200, Mono Q)
B8: AD (1xAsp) myosin-II assembly domain (domain or fragment, Dictyostelium discoideum)
chain: B7 chain with T294D
notes: N-terminal methionine added before the myosin residues; Dictyostelium myosin-II heavy chain, assembly domain, a.a; 1,531-1,824; also called headless AD (1xAsp); source: E. coli BL21-CodonPlus (DE3)-RIL, purified (boiling, DEAE, Superdex 200, Mono Q)
B9: Ala1-Cterm (3xThr) (domain or fragment, Dictyostelium discoideum)
chain: MLDEIKRQYADVVSSRDKSVEQLKTLQAKNEELRNTAEEAEGQLDRAERSKKKAEFDLEEAVKNLEEETAKKVKAEKAMKKAETDYRSTKSELDDAKNVSSEQYVQIKRLNEELSELRSVLEEADERCNSAIKAKKTAESALESLKDEIDAANNAKAKAERKSKELEVRVAELEESLEDKSGTVNVEFIRKKDAEIDDLRARLDRETESRIKSDEDKKNTRKQFADLEAKVEEAQREVVTIDRLKKKLESDIIDLSTQLDTETKSRIKIEKSKKKLEQTLAERRAAEEGSSKAADEEIRKQVWQEVDELRAQLDSERAALNASEKKIKSLVAEVDEVKEQLEDEILAKDKLVKAKRALEVELEEVRDQLEEEEDSRSELEDSKRRLTTEVEDIKKKYDAEVEQNTKLDEAKKKLTDDVDTLKKQLEDEKKKLNESERAKKRLESENEDFLAKLDAEVKNRSRAEKDRKKYEKDLKDTKYKLNDEAATKTQTEIGAAKLEDQIDELRSKLEQEQAKATQADKSKKTLEGEIDNLRAQIEDEGKIKMRLEKEKRALEGELEELRETVEEAEDSKSEAEQSKRLVELELEDARRNLQKEIDAKEIAEDAKSNLQREIVEAKGRLEEESIARTNSDRSRKRLEAEIDALTAQVDAEQKAKNQQIKENKKIETELKEYRKKFGESEKTKTKEFLVVEKLETDYKRAKKEAADEQQQRLTVENDLRKHLSEISLLKDAIDKLQRDHDKTKRELETETASKIEMQRKMADFFGGFKA
notes: N-terminal methionine added before the myosin residues; Dictyostelium myosin-II heavy chain, a.a; 1,348-2,116 (Ala 1 through C terminus); also called headless Ala1-Cterm (3xThr); source: E. coli BL21-CodonPlus (DE3)-RIL, purified (boiling, DEAE, Superdex 200, Mono Q)

Experiments:
P08799 = test: sedimentation assembly assay; self-assembly into filaments or paracrystals; 10 uM protein added to an equal volume, 10 mM imidazole pH 7.5, 0.1 mM EDTA, 1 mM DTT, 0-250 mM NaCl, on ice at least 30 min, 132,000 x g 15 min 4 °C; supernatant and pellet by SDS-PAGE; settings: other: sedimentation assembly assay
[1] = target: the molecule itself; test: AUC; sedimentation equilibrium; step: single chains to two-stranded coiled coil; 10.5-52 uM protein, 10 mM Tris pH 7.4, 0.1 mM EDTA, 500 mM NaCl, 10 °C, 10,000 rpm; fit to a single non-associating ideal species
[2] = target: the molecule itself; test: sedimentation assembly assay; self-assembly into filaments or paracrystals; 10 uM protein added to an equal volume, 10 mM imidazole pH 7.5, 0.1 mM EDTA, 1 mM DTT, 0-250 mM NaCl, on ice at least 30 min, 132,000 x g 15 min 4 °C; supernatant and pellet by SDS-PAGE

| Protein | binding result [2] | further results |
| --- | --- | --- |
| B1 |  | fold difference in solubility against AD-Cterm (3xThr) (P08799): eight-fold difference in solubility of full-length unphosphorylated and phosphorylated myosin, respectively, and AD-Cterm (3xThr) and AD-Cterm (3xAsp), respectively; stoichiometry N [1]: 2 |
| B2 |  | stoichiometry N [1]: 2 |
| B3 |  | fold difference in solubility against extended AD (2xThr) (P08799): extended AD (2xThr) and extended AD (2xAsp) show a four-fold difference in solubility |
| B4 | binds |  |
| B5 | binds |  |
| B6 | binds |  |
| B7 | binds |  |
| B8 | binds |  |
| B9 | binds |  |
